Assay: yeast display, Sf9 membrane polyspecificity reagent, FACS + sequencing; frameworks hold sequencing errors
Procedure, shortened: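 Nanobodies came from a synthetic yeast display library in Saccharomyces cerevisiae BJ5465, induced with galactose for 36–48 hours and stained for 1 hour at 4 °C with 10% biotinylated, detergent-solubilized Sf9 membrane reagent. Cells were enriched on streptavidin microbeads and then FACS-sorted, with low and high (top ~1%) gates set on anti-HA fluorescence for expression and streptavidin fluorescence for reagent binding. Each polyreactivity label reflects the gate a clone came from. Genes were amplified by colony PCR, sequenced by MiSeq 2 × 250 and filtered by CDR length.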

Sequence | polyreactivity (PSR sort gate)
QVQLVETGGGLVQAGGSLRLSCAASGFIFRYYAMGWYRPAPGKERELVAVISSNGARTSYADSVKGRFTISRDNAKNTVYLQMNSLKPEDTADYYCNARAWSRFPPVGHDYWGQGTQVTVSS | high polyreactivity
QVQLVETGGGLVQAGGSLRLSCAASGFIFVDYAMGWYRPAPGKERELVAAITSNDDRTYYADSVKGRFTISRDNAKNTVYLQMNSLKPEDTAVYYCAAGGWGATADATFTYLYDYWGQGTQVTVSS | low polyreactivity
QVQLVETGGGLVQAGGSLRLSCAASGFTFAKYAMGRYRQAPGKERELVAAISSIGGSTYYADSVKGRFTISRDNAKNSVYLQMNSLKPEDSAVYFCAAELYCGYYYWGQGTQVTVYS | high polyreactivity
QVQLVETGGGLVQAGGSLRLSCAASGFTFAPYVMGWSRQAPGKERELVAAINWSGTRTYYADSVKGRFTFSRDNAKNTVYLQMNSLKPEDTAVYYCAARSVTVSGSLQPKRRYGYWGQGTQVTVSS | high polyreactivity
QVQLVETGGGLVQAGGSLRLSCAASGFTFFYYDMGWYRQAPGKERELVADITTGGSTNYADSVKGRFTISRDNAKNTVYFQMNSLKTEDTAVYYCAAATTYPYGYYYWGQGTEVTVSS | high polyreactivity
QVQLVETGGGLVQAGGSLRLSCAASGFTFIDYTMGWYRQAPGKERELVARITDTGSTNYEDSVKGRFTISRDT | low polyreactivity
QVQLVETGGGLVQAGGSLRLSCAASGFTFSFYTMGWYRQAPGKERELVAAISRRGGSTYYADSVKGRFTISRDNAKNTVYLQMNSLKPEDTAVYYCPTDHIPSVGDDYWGQGTQVTVSS | high polyreactivity
QVQLVETGGGLVQAGGSLRLSCAASGIIFGGYDRGWYRQAPGKERELVAAISWSGGSTYYAASVKGRFTISRDNAKNTVYLEMNSLKPEDTAVYYCAAAYYAPTRDYYYWGQGTQVTVSS | low polyreactivity
QVQLVETGGGLVQAGGSLRLSCAASGITFFAYAMGWYRQAPGKERELVAAISTGGSTNYADSVKGRFTISRDNAKNTVYLQMNSLKPEDTAVYYCGSDRSDLAEEGYAGYDYWGQVTQVTVSS | low polyreactivity
QVQLVETGGGLVQAGGSLRLSCAASGITFKNYAMGWYRQANGKERELVATINRGSRTNYADSVKGRFTISRDNAKNTVYLQMNSLKPEDTAVYYCNVDQANYRWVPWEMDYWGQGSQVTVSS | low polyreactivity
QVQLVETGGGLVQAGGSLRLSCAASGLIFSYKAMGWYRQAPGKERELVGAISRGGSTYYADSVKGRFTISRDNAKNTVYLQMNSLKRVDTAVYYCAADFYGWVDYWGQGTQVTVSS | high polyreactivity
QVQLVETGGGLVQAGGSLRLSCAASGLTIHPYAKGCYRQAPGKERELVAAISSRGTSTYYADSVKGRFTISRDNAKNTVYLQMNSLKPEDTAVYYCAARHGPRAEAMYYWGQGTQVTVSS | high polyreactivity
QVQLVETGGGLVQAGGSLRLSCAASGLTSLGNAMGGYRQAPGKERELVAAITRTVTSTYYADSVKGRFTISRDTAKNTVYLQMNSLKPEDTAVYYCAADWWYGYSNYDYWGQGTEVTVSS | low polyreactivity
QVQLVETGGGLVQAGGSLRLSCAASGPTFSRNAKGWYRQAPGKERELVATISRGGGITFYADSVKGRFTISRDNAKNTVYLQMNSLKPEDTAVYYCNADVRYVGLRRIVDYWGQGTQVTVSS | high polyreactivity
QVQLVETGGGLVQAGGSLRLSCAASGRIFGHYVMGWYRPAPGTERELVAAITWRGGSTYYADSVKGRFTISRDYAKNTVYLQMNSLKPEDTAVYDCNASPSEVRRRYDYWGQGTQVTVSS | high polyreactivity
QVQLVETGGGLVQAGGSLRLSCAASGRIFLGYAMGCYRQAPGKERELVAAISGRGGRTNYADSVKGRFTISRDNAKNTVYLQMNSLKPEDTAVYYCATVPYTASRYEYWGQGTQVTVSS | high polyreactivity
QVQLVETGGGLVQAGGSLRLSCAASGRIFVFYTKGWYRQAPGKERELVARITGGGSTSYADSVKGRFTISRDNAKNTVYLQMNSLKPEDTAVYYCAAVTRRRYYGHIYGYWGQGTQVTVSS | high polyreactivity
QVQLVETGGGLVQAGGSLRLSCAASGRIFWWYAMGWYRQAPGKERELVAAISTGSRTYYADSVKGRFTISRDNAKNTVYLQMNSLKPEDTAVYYCVADGLYSVSRSSIFEYWGQGTQVTVSS | low polyreactivity
QVQLVETGGGLVQAGGSLRLSCAASGRTFSRNAMGWYRQAPGKERELVAAISQRGVSTYYADSVKGRFTISRDNAKNTVYLQMNSLKPEDTAVYYCNTRGTYRYDYWGQGTQVTVSS | low polyreactivity
QVQLVETGGGLVQAGGSLRLSCAASGSIFDWYAMGWYRQAPGKEGELVAAISSGDSTYYADSVKGRFTISRDNAKNTVYLKMNSLKPEDTAVYYCAAVTKLSGIRYNYWGQGTQVTVSS | low polyreactivity
QVQLVETGGGLVQAGGSLRLSCAASGSIFRDNAMGWYRQAPGKESELVAAINVRDGDTFYADSVKGRFTISRDNAKNTVYLQMNSLKPEDTAVYYCAVAGATSYFAYDSWGQGTQVTVSS | low polyreactivity
QVQLVETGGGLVQAGGSLRLSCAASGSIFSGNAMGRSRPAPGKERELVGAITGSGGSTYYADSVKGRFTITRDNAKNTVYLQMNSLKPVDTAVYYCAVLFRTFYYWGQGTQVTVSS | high polyreactivity

Sequence | polyreactivity (PSR sort gate)
QVQLVETGGGLVQAGGSLRLSCAASGSIFVLYAMVWSRQAPGKERELVAAISKRTGSSYYADSVKGRFTISRDHAKHTVYLQTNSLKPEDTAVYYCAARGRQYRYYDLDYWGQGTQVTLSS | low polyreactivity
QVQLVETGGGLVQAGGSLRLSCAASGSIFWSNAMGWYRQAPGKERELVAAITSGGRTYYADSVKGRFTISRDNAKNTVYLQMNSLKPEDTAVYYCAAYWNSATGFDYWGQVTQVTVSS | high polyreactivity
QVQLVETGGGLVQAGGSLRLSCAASGSSFGSYAMGWYREAPGKERELVAAISSSGASTYYADSVKGRFTISRDNAKITVYLQMNSLKPEDTAVYYCNAARRYPTRGGYWGQGTQVTVSS | high polyreactivity
QVQLVETGGGLVQAGGSLRLSCAASGSTFFINAMGWYRQAPGKERELVAAITSTDSTTYADSVKGRFTISRDNAKNTVYLQMNSLKPEDTAVYYCAKESIGQDPVSGAWARHEYDYWGQGTQVTVSS | low polyreactivity
QVQLVETGGGLVQAGGSLRLSCAASGSTFGWNAMGWYRQAPGKERELVAAITGGGSTYYADSVKGRFTISRDNAKNTVYLQMNSLKPEDTAVYYCEGDYWGQGTQVTVSS | low polyreactivity
QVQLVETGGGLVQAGGSLRLSCAASGSTLAPYVMGWYRQAPGKERELVAVISTRTGRTYYADSVKGRFTISRDNAKNTVYLQMNSLKPEDTAVYYCAAPVYPYQVQTYDYWGQGTQVTVSS | high polyreactivity
QVQLVETGGGLVQAGGSLRLSCAASGTLSSYAMGWYRPAPGTERELVAAISLSGGSTYADSVKGRFTISRDNAKNTVYLQMNSLKPEDTAVYYCAATSSFRYDYWGQGTQVTVSS | low polyreactivity
QVQLVETGGGLVQAGGSLRLSCAASRSTIADNAMGWYRQAPGKERELVAAITRSGVRTYYADSVKGRFTISRDNAKNTVYLQMNSLKPEDTAVYYCAKRTYPSRIYDYWGQGTQVTVSS | low polyreactivity
QVQLVETGGGLVQAGGSLRLSCAPSGITFYVYAMGWYTQAPGKERELVAAISSGSSTYYADSVKGSFTISRDNAKNTVYLQMNSLKPEDTAVYYCAARYRKYLSEYCGQGTQVTVSS | high polyreactivity
QVQLVETGGGLVQAGGSLRLSCAPSGNTIIRYAMGWYRQAPGKERELVAAISYSGGRTYYADSVKGRFTISRDNAKNTVYLQMNSLKPEDTAVYYCNAASRYGGDYWGPGTQVTVSS | high polyreactivity
QVQLVETGGGLVQAGGSLRLSCDASVSTFRYYTMGWYRQAPGKERELVASIRRGGSTNYADSVKGRFTISRDNAKNTVYLQMNSLKPEDTAVYYCNAKKGVYNGDAAKYDYWGPGTQVTVSS | high polyreactivity
QVQLVETGGGLVQAGGSLRLSCPASGRIFEDNAMGWYRQEPGKERELVAAIDFSGGDTYYADSVKGRFTISRDNAKNTVYLQMNSLKPEDTAVYYCAAGRSGWGYDSWGQGTQVTVSS | low polyreactivity
QVQLVETGGGLVQAGGSLRVSCAASGSTFSGYAMGWYRQAPGKERELVAAITRSGGRTYYADSVKGRFTISRDNAKNTVYLQMNSLLPEDTAVYYCATDRAYYHSYGRFGYWGQGTHVTVSS | high polyreactivity
QVQLVETGGGLVQAGGTLRLSCAPSGYTIYFYALGWDIQAPGTERELVAAISGSGGRTYYADSVKGRFTISRDNAKNTVYLQMNSLKPEDTAVYYCAARKYKRIYRISSGIGYYWGQGTQVTVSS | high polyreactivity
QVQLVETGGGLVQAGVSLRLSCAASGRTWGYDMGWYRQAPGKERELVAAIRNGASTYYADSVKGRFTISRDNAKNTVYLQMNSLKPEDTAVYYCAADYTVRVVATYDYWGQGTQVTVSS | low polyreactivity
QVQLVETGGGVVQAGGSLRISCAASGRIFLYYTMGWYRQAPGIERELVATIRSGDSTIYADAVKGRFTISRDNAKNTVYLQMNTLTPEDTAVYYCAADWDIFQQGANGAPYDYWGQGTQVTVSS | low polyreactivity
QVQLVETGGVLVQAGGSLRLSCAASGSIFQQNAMGGYRQAPGKERELVASISSGGRTNYADSVKGRCTISRDNAKNTVYLQMNSLKPEDTAVYYCAKTRIRYKPLHFYYWGQGTQVTVSS | low polyreactivity
QVQLVETGRGLVQAGGSLRLSCAASGLILVPNTMGWYRQAPGTERELVAAISYSGGGPYYADSVKGRFTLSRDNATNTVYLQMNSLKPEDTAVYSCAAYDKRESPPYGYWGQGTQVTVSS | low polyreactivity
QVQLVETGRGLVQAGGSLRLSSAASGSTFGPNAMGWYRQAHGKVRELVAAITWSGSTTYYADSVKGRFTISRDIAKNTVYLQMNSLKPEDTPVYYCAALRGYRSNWRYGYWGQGTQVTVSS | low polyreactivity
QVQLVETWGGLVQAGGSLRLSCPASGSIFPRKAMGWYRQAPGKERELVAGISSGGSTNYADSVKGRFTISRDNAKNTVYLQMNSLKPEDTAVYYCAARQWIRNLGFGYSIYNYWGQGTQVTVSS | high polyreactivity
QVQLVGSGGGLVQAGGSLRLSCAASGRTFRAYAMGWYRQAPGKERELVAAIRSSGGSTYADSVKGRFTISRDNAKNTVYLQMNSLKPEDTAVYYFAKPIAPARNAYPAYDYWGQGTQVTVSS | high polyreactivity

— the nanobody polyreactivity screen of Harvey et al. (2022)
